Measurements as given in US20200283478.

Assays:
[1] = test system: T1, Compound 112
T1 sequence: WNLVRIGLTR

[2] = test system: T2, Compound 26
T2 sequence: SGCFIPWNLQRIGLLC

[3] = test system: T3, Compound 29
T3 sequence: SGCFIPWNLQRIGLLC

[4] = test system: T4, Pep2-8
T4 sequence: TVFTSWEEYLDWV

PCSK9-R167A:R215A:R218A
FXIa cleavage of the P′ helix (immunoblot) [1]: able to increase the FXIa-mediated cleavage of the P′ helix at R160-I161 in a similar fashion as shown for Fab33 | FXIa cleavage of the P′ helix (immunoblot) [2]: accelerated the cleavage reaction, leading to almost complete cleavage of the P′ helix | FXIa cleavage of the P′ helix (immunoblot) [3]: accelerated the cleavage reaction, leading to almost complete cleavage of the P′ helix | FXIa cleavage of the P′ helix (immunoblot) [4]: largely prevented cleavage of the P′ helix by FXIa
